Data from paper PMC4081096, “GtrS and GltR form a two-component system: the central role of 2-ketogluconate in the expression of exotoxin A and glucose catabolic enzymes in Pseudomonas aeruginosa” (Nucleic Acids Research, 2014).

How the values were obtained:
GtrS [1] = target: T1, GtrS (Pseudomonas aeruginosa, UniProt Q9HZ47); test: isothermal titration calorimetry with purified recombinant GtrS-LBD; 2-KG also accelerates autophosphorylation of full-length GtrS in membranes; format: binding
GtrS [2] = target: T1, GtrS; test: isothermal titration calorimetry with purified recombinant GtrS-LBD; format: binding
[3] = test system: GltR (Pseudomonas aeruginosa PAO1); test: EMSA; details: EMSA: 2 nM 32P-DNA, 50 mM Tris-HCl pH 7.5, 10 mM NaCl, 0.5 M Mg acetate (so in the source), 0.1 mM EDTA, 1 mM DTT, 5% glycerol, 20 ug/ml poly(dI-dC), 200 ug/ml BSA …
[4] = target: T2, GltR (Pseudomonas aeruginosa PAO1) (UniProt G3XCY6); test: EMSA; details: EMSA: 2 nM 32P-DNA, 50 mM Tris-HCl pH 7.5, 10 mM NaCl, 0.5 M Mg acetate (so in the source), 0.1 mM EDTA, 1 mM DTT, 5% glycerol, 20 ug/ml poly(dI-dC), 200 ug/ml BSA …
T2 sequence: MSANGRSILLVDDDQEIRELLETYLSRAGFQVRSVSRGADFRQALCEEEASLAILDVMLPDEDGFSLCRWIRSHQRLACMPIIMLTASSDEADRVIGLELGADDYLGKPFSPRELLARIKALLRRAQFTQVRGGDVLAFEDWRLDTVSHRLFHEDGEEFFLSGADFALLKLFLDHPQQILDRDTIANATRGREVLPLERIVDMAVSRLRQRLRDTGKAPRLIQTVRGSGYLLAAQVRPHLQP

T1 sequence (Q9HZ47 30-197): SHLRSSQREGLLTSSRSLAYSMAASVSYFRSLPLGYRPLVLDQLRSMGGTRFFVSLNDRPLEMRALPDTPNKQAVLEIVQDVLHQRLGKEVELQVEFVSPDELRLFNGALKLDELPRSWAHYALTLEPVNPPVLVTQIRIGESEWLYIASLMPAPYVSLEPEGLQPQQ

| Compound | K half [3] [nM] | also measured |
| --- | --- | --- |
| O=C(O)C(=O)[C@@H](O)[C@H](O)[C@H](O)CO [2-KG, 2-ketogluconate] | – | Kd (GtrS [1]): 4.95 ± 0.8 µM |
| O=C(O)[C@H](O)[C@@H](O)[C@H](O)[C@H](O)COP(=O)(O)O [6PG, 6-phosphogluconate] | – | Kd (GtrS [2]): 98 ± 33 µM |
| Pedd/gap-1 promoter fragment | 1000 | – |
| PtoxA promoter fragment | 1000 | – |
| PoprB promoter fragment | 1000 | – |
| Pglk promoter fragment | 1000 | – |
| AGATCTTGCAGCTTTACCGAGAGCCTCAACGGCTGGCGCTGATTCTGATAGGTCGATATCCGCCGGCGCTTGGCTGGCGGCTGTCTCTCCGGCAACATCTGCCGACCGTCCCGCCCTGGCGCGGGGCATTGCGGTTCAACGACGATGAATAACGACAACAAGAGAAGCGCCGGCGGCCTCGGCCTGGTCGGCGATATCGCTGCAG (double strand) [Pglk promoter fragment] | – | K half [4]: 1000 nM |
